Results reported in patent US20240101683A1 (published 2024).

Tests used:
Murine FGFR2IIIb = target: T1, Murine FGFR2IIIb (murine, UniProt P21803-2 22-263, limits assumed); assay: ELISA, coated antigen, anti-Fab HRP
T1 construct: Construct used in the ELISA is not described

Human FGFR2βIIIb = target: T2, Human FGFR2βIIIb (human, UniProt P21802-21 22-263, limits assumed); assay: ELISA, coated antigen, anti-Fab HRP
T2 construct: Construct used in the ELISA (tag, Fc, limits) is not described

[1] = target: T3, rhFGFR2IIIb-Fc (recombinant human FGFR2IIIb-Fc) (human, UniProt P21802-3 22-378, limits assumed); assay: ELISA, coated rhFGFR2IIIb-Fc, anti-Fab HRP
T3 construct: Coated on the ELISA plate at 2 ug/mL; not shown: Fc part
T3 sequence (P21802 other isoform, or with tags, fused parts or gaps limits assumed): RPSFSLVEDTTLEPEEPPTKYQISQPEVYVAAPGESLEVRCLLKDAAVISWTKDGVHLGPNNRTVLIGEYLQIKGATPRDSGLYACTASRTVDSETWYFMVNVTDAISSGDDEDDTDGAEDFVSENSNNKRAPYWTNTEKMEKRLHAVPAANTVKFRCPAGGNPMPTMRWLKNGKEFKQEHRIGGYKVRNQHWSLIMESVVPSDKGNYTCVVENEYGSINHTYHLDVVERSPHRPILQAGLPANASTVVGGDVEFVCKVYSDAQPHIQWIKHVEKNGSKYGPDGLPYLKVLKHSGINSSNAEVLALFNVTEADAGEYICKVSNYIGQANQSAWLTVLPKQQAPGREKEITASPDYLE

T2 sequence (P21802 other isoform, or with tags, fused parts or gaps limits assumed): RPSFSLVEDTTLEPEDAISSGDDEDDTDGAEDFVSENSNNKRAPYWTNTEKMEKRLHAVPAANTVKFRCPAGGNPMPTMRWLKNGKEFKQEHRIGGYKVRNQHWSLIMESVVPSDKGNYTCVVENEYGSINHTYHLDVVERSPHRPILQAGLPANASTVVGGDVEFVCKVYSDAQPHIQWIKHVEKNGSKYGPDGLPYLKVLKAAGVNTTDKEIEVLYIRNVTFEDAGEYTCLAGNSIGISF
T1 sequence (P21803 other isoform, or with tags, fused parts or gaps limits assumed): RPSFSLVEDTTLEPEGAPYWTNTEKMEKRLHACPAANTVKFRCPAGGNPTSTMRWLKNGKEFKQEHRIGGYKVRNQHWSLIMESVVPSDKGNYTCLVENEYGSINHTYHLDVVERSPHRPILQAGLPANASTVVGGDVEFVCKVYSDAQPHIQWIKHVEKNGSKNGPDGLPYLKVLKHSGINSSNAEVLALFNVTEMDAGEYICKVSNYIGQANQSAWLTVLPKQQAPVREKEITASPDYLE

| Binder | EC50 (Murine FGFR2IIIb) [nM] | EC50 (Human FGFR2βIIIb) [nM] | EC50 [1] [nM] |
| --- | --- | --- | --- |
| FWB1904 (antibody, V domains shown) VH: QVQLVQSGAEVKKPGSSVKVSCKASGYIFTSYNVHWVRQAPGQGLEWIGSIYPDNGDTSYNQNFRGRATITADKSTSTAYMELSSLRSEDTAVYYCARGDFAYWGQGTLVTVSS VL: DIQMTQSPSSLSASVGDRVTITCKASNGISNDIAWYQQKPGKAPKLLIYSASYRYSGVPSRFSGSGSGTDFTFTISSLQPEDIATYYCQQHSTTPYTFGQGTKLEIK | 0.308 | 0.163 | 0.351 |
| FWB1908 (antibody, V domains shown) VH: QVQLVQSGAEVKKPGSSVKVSCKASGYIFTTYNVHWVRQAPGQGLEWIGSIYPDNGDSTYNQNFKGRATITADKSTSTAYMELSSLRSEDTAVYYCARGDFAYWGQGTLVTVSS VL: DIQMTQSPSSLSASVGDRVTITCKGSQGVSNDVAWYQQKPGKAPKLLIYSASYRYTGVPSRFSGSGSGTDFTFTISSLQPEDIATYYCQQHSTTPYTFGQGTKLEIK | 0.225 | 0.126 | 0.281 |
| FWB1907 (antibody, V domains shown) VH: QVQLVQSGAEVKKPGSSVKVSCKASGYIFTSYNVNWVRQAPGQGLEWIGSIYPDNGDSSYNNNYKGRATITADKSTSTAYMELSSLRSEDTAVYYCARGDFAYWGQGTLVTVSS VL: DIQMTQSPSSLSASVGDRVTITCRASNGISNDIAWYQQKPGKAPKLLIYSASYRYSGVPSRFSGSGSGTDFTFTISSLQPEDIATYYCQQHSTTPYTFGQGTKLEIK | 5.9 | 0.262 | 1.06 |
| FWB1906 (antibody, V domains shown) VH: QVQLVQSGAEVKKPGSSVKVSCKASGYIFTSYNVHWVRQAPGQGLEWIGSIYPDNGDSSYNQNYRGRATITADKSTSTAYMELSSLRSEDTAVYYCARGDFAYWGQGTLVTVSS VL: DIQMTQSPSSLSASVGDRVTITCKASNGISNDIAWYQQKPGKAPKLLIYSASYRYSGVPSRFSGSGSGTDFTFTISSLQPEDIATYYCQQHSTTPYTFGQGTKLEIK | 0.289 | 0.167 | 0.324 |
| FWB1919 (antibody, V domains shown) VH: QVQLVQSGAEVKKPGSSVKVSCKASGYIFTSYNVHWVRQAPGQGLEWIGSIYPDNGDSSYNQNYRGRATITADKSTSTAYMELSSLRSEDTAVYYCARGDFAYWGQGTLVTVSS VL: DIQMTQSPSSLSASVGDRVTITCRGSNGISNDIAWYQQKPGKAPKLLIYSASYRYSGVPSRFSGSGSGTDFTFTISSLQPEDIATYYCQQHSTTPYTFGQGTKLEIK | 0.314 | 0.149 | 0.879 |
| FWB1905 (antibody, V domains shown) VH: QVQLVQSGAEVKKPGSSVKVSCKASGYIFTSYNVHWVRQAPGQGLEWIGSIYPDNGDSSYNQNYKGRATITADKSTSTAYMELSSLRSEDTAVYYCARGDFAYWGQGTLVTVSS VL: DIQMTQSPSSLSASVGDRVTITCKASNGVSNDIAWYQQKPGKAPKLLIYSASYRYSGVPSRFSGSGSGTDFTFTISSLQPEDIATYYCQQHSTTPYTFGQGTKLEIK | 0.262 | 0.173 | 0.298 |
| FWB1910 (antibody, V domains shown) VH: QVQLVQSGAEVKKPGSSVKVSCKASGYIFTTYNVHWVRQAPGQGLEWIGSIYPDNGDTSYDEDFKGRATITADKSTSTAYMELSSLRSEDTAVYYCARGDFAYWGQGTLVTVSS VL: DIQMTQSPSSLSASVGDRVTITCKVSQGVSNDAVWYQQKPGKAPKLLIYSASYRYTGVPSRFSGSGSGTDFTFTISSLQPEDIATYYCQQHSTTPYTFGQGTKLEIK | 0.295 | 0.21 | 0.279 |
| FWB1913 (antibody, V domains shown) VH: QVQLVQSGAEVKKPGSSVKVSCKASGYIFTSYNVHWVRQAPGQGLEWIGSIYPDNGDSSYNQNYKGRATITADKSTSTAYMELSSLRSEDTAVYYCARGDYAYWGQGTLVTVSS VL: DIQMTQSPSSLSASVGDRVTITCKASNGVSNDIAWYQQKPGKAPKLLIYSASYRYSGVPSRFSGSGSGTDFTFTISSLQPEDIATYYCQQHSTTPYSFGQGTKLEIK | 0.296 | 0.196 | 0.903 |
| FWB1914 (antibody, V domains shown) VH: QVQLVQSGAEVKKPGSSVKVSCKASGYIFTSYNVHWVRQAPGQGLEWIGSIYPDNGDSSYNNNYKGRATITADKSTSTAYMELSSLRSEDTAVYYCARGDFAYWGQGTLVTVSS VL: DIQMTQSPSSLSASVGDRVTITCKASNGVSNDIAWYQQKPGKAPKLLIYSASYRYSGVPSRFSGSGSGTDFTFTISSLQPEDIATYYCQQHSTTPYTFGQGTKLEIKR | 0.25 | 0.203 | 1.01 |
| FWB1922 (antibody, V domains shown) VH: QVQLVQSGAEVKKPGSSVKVSCKASGYIFTSYNVHWVRQAPGQGLEWIGSIYPDNGDSTYNQNYRGRATITADKSTSTAYMELSSLRSEDTAVYYCARGDFAYWGQGTLVTVSS VL: DIQMTQSPSSLSASVGDRVTITCKGSNGISNDIAWYQQKPGKAPKLLIYSASYRYSGVPSRFSGSGSGTDFTFTISSLQPEDIATYYCQQHSTTPYTFGQGTKLEIK | 0.139 | 0.215 | 0.656 |
| FWB1916 (antibody, V domains shown) VH: QVQLVQSGAEVKKPGSSVKVSCKASGYIFTSYNVHWVRQAPGQGLEWIGSIYPDNGDSSYNQNYKGRATITADKSTSTAYMELSSLRSEDTAVYYCARGDFAYWGQGTLVTVSS VL: DIQMTQSPSSLSASVGDRVTITCKASNGISNDIAWYQQKPGKAPKLLIYSASYRYSGVPSRFSGSGSGTDFTFTISSLQPEDIATYYCQQHSTTPYTFGQGTKLEIK | 0.29 | 0.143 | 0.582 |

The remaining binders from weak to strong by EC50 [1], led by results:

| EC50 (Murine FGFR2IIIb) [nM] | EC50 (Human FGFR2βIIIb) [nM] | EC50 [1] [nM] | Binder |
| --- | --- | --- | --- |
| – | – | 1.89 | FWB1924 (antibody, V domains shown) VH: QVQLVQSGAEVKKPGSSVKVSCKASGYIFTSYNVHWVRQAPGQGLEWIGSLYPDNGDTSYDEDYKGRATITADKSTSTAYMELSSLRSEDTAVYYCARGDFAYWGQGTLVTVSS VL: DIQMTQSPSSLSASVGDRVTITCKVSQGVSNDAVWYQQKPGKAPKLLIYSASYRYSGVPSRFSGSGSGTDFTFTISSLQPEDIATYYCQQHSTTPYTFGQGTKLEIK |
| – | – | 1.68 | FWB1923 (antibody, V domains shown) VH: QVQLVQSGAEVKKPGSSVKVSCKASGYIFTSYNVHWVRQAPGQGLEWIGSIYPDNGDSTYDEDFKGRATITADKSTSTAYMELSSLRSEDTAVYYCARGDFAYWGQGTLVTVSS VL: DIQMTQSPSSLSASVGDRVTITCKVSQGVSNDAVWYQQKPGKAPKLLIYSASYRYSGVPSRFSGSGSGTDFTFTISSLQPEDIATYYCQQHSTTPYTFGQGTKLEIK |
| 0.274 | 0.153 | 1.21 | FWB1920 (antibody, V domains shown) VH: QVQLVQSGAEVKKPGSSVKVSCKASGYIFTSYNIHWVRQAPGQGLEWIGSIYPDNGDSSYNQNYRGRATITADKSTSTAYMELSSLRSEDTAVYYCARGDFAYWGQGTLVTVSS VL: DIQMTQSPSSLSASVGDRVTITCKGSNGVSNDIAWYQQKPGKAPKLLIYSASYRYSGVPSRFSGSGSGTDFTFTISSLQPEDIATYYCQQHSTTPYTFGQGTKLEIK |
| 0.273 | 0.185 | 0.877 | FWB1915 (antibody, V domains shown) VH: QVQLVQSGAEVKKPGSSVKVSCKASGYIFTSYNVHWVRQAPGQGLEWIGSIYPDNGDSSYDEDYKGRATITADKSTSTAYMELSSLRSEDTAVYYCARGDFAYWGQGTLVTVSS VL: DIQMTQSPSSLSASVGDRVTITCKASNGVSNDIAWYQQKPGKAPKLLIYSASYRYSGVPSRFSGSGSGTDFTFTISSLQPEDIATYYCQQHSTTPYTFGQGTKLEIK |
| 0.293 | 0.207 | 0.724 | FWB1912 (antibody, V domains shown) VH: QVQLVQSGAEVKKPGSSVKVSCKASGYIFTSYNVHWVRQAPGQGLEWIGSIYPDNGDSSYNQNYKGRATITADKSTSTAYMELSSLRSEDTAVYYCARGDYAYWGQGTLVTVSS VL: DIQMTQSPSSLSASVGDRVTITCKASNGVSNDIAWYQQKPGKAPKLLIYSASYRYSGVPSRFSGSGSGTDFTFTISSLQPEDIATYYCQQHSTTPYTFGQGTKLEIK |
| 0.338 | 0.246 | 0.697 | FWB1911 (antibody, V domains shown) VH: QVQLVQSGAEVKKPGSSVKVSCKASGYIFTSYNVHWVRQAPGQGLEWIGSIYPDNGDSSYNQNYKGRATITADKSTSTAYMELSSLRSEDTAVYYCARGDFAYWGQGTLVTVSS VL: DIQMTQSPSSLSASVGDRVTITCKASNGVSNDIAWYQQKPGKAPKLLIYSASYRYSGVPSRFSGSGSGTDFTFTISSLQPEDIATYYCQQHSTTPYSFGQGTKLEIK |
| 0.0908 | 0.173 | 0.643 | FWB1925 (antibody, V domains shown) VH: QVQLVQSGAEVKKPGSSVKVSCKASGYIFTSYNVHWVRQAPGQGLEWIGSIYPDNGDSTYDEDYRGRATITADKSTSTAYMELSSLRSEDTAVYYCARGDFAYWGQGTLVTVSS VL: DIQMTQSPSSLSASVGDRVTITCKGSNGISNDIAWYQQKPGKAPKLLIYSASYRYSGVPSRFSGSGSGTDFTFTISSLQPEDIATYYCQQHSTTPYTFGQGTKLEIK |
| 0.27 | 0.135 | 0.626 | FWB1918 (antibody, V domains shown) VH: QVQLVQSGAEVKKPGSSVKVSCKASGYIFTSYNVHWVRQAPGQGLEWIGSIYPDNGDSSYNQNFRGRATITADKSTSTAYMELSSLRSEDTAVYYCARGDFAYWGQGTLVTVSS VL: DIQMTQSPSSLSASVGDRVTITCKGSNGISNDIAWYQQKPGKAPKLLIYSASYRYSGVPSRFSGSGSGTDFTFTISSLQPEDIATYYCQQHSTTPYTFGQGTKLEIK |
| 0.261 | 0.176 | 0.621 | FWB1921 (antibody, V domains shown) VH: QVQLVQSGAEVKKPGSSVKVSCKASGYIFTSYNVHWVRQAPGQGLEWIGSIYPDNGDSTYNQNYRGRATITADKSTSTAYMELSSLRSEDTAVYYCARGDFAYWGQGTLVTVSS VL: DIQMTQSPSSLSASVGDRVTITCKGSNGVSNDIAWYQQKPGKAPKLLIYSASYRYSGVPSRFSGSGSGTDFTFTISSLQPEDIATYYCQQHSTTPYTFGQGTKLEIK |
